The target in this assay is ShAb01 (nurse shark (Ginglymostoma cirratum)). Description: BLI. To be noted: both partners purified.

B1: SARS-CoV-1 RBD (domain or fragment)
chain: not shown
For the molecule B1, the Kd amounted to 198 nM.

The values above are taken from article PMC9896449 (Nature Communications, 2023).
